Where “and” joins values, the source holds several entries; their conditions need not be identical. Identical values can stand only once.

For assay [1], the target named is T1, hVISTA-ECD 6-His tag (human, UniProt Q9H7M9 33-193).
T1 construct: also called monovalent hVISTA-ECD; human VISTA
Put plainly: SPR 37 C, Ab on Protein A, pH 7.4.

Assay [2] addresses T1, hVISTA-ECD 6-His tag. The assay is described as follows: SPR 37 C, Ab on Protein A, pH 6.0.
Assay [3] deals with T2, monovalent hVISTA-ECD (amino acids 32-193 of SEQ ID NO: 1 with a 7xHis tail) (human, UniProt Q9H7M9 33-193).
T2 construct: analyte of the SPR assays; also called huVISTA-His; human VISTA-ECD
The assay is described as follows: SPR 37C, Ab on Protein A, hVISTA-ECD 50-5 nM, pH 6.0, average. The protocol: Binding of several preparations of each of the ‘029 progeny clones and of the parent ‘029 antibodies, formatted as IgG1.3 antibodies, to human VISTA at pH 6.0 and 7.4 was measured by Surface plasmon resonance (SPR). SPR analysis was performed to measure koff and KD binding affinity measurements for VISTA Abs at acidic and neutral pHs using a Biacore® T100 instrument (GE Healthcare). […] Antibodies were diluted to 25 nM in PBST pH 7.4, and were captured across active biosensor flow cells at 5 ul/min for 60 seconds. A concentration series of 50 - 5 nM monovalent hVISTA-ECD (SEQ ID NO: 325) was prepared in pH 7.4 and 6.0 running buffers, and was injected over the captured antibodies at 40 ul/min to measure association and dissociation. Two 15 second injections of 10 mM glycine pH 1.5 were used to regenerate the Protein A capture surface between assay cycles. Rate constants ka (kₒₙ) and kd (koff) were derived from reference flow cell and 0 nM blank-subtracted sensorgrams, and were fit to a 1:1 binding model in Biacore® T200 Evaluation Software v.2.0. The affinity constant, KD was calculated as the ratio of rate constants koff/kₒₙ for each VISTA antibody.

Assay [4] has as its target T1, hVISTA-ECD 6-His tag. Put plainly: SPR, Ab on Protein A, hVISTA analyte, pH 6.45. In general terms: In SPR one partner is held on a chip, and binding of the other changes the refractive index at the surface.
In assay [5] the target is T1, hVISTA-ECD 6-His tag. The assay is described as follows: SPR, Ab on Protein A, hVISTA analyte, pH 6.0.
Assay [6] addresses T1, hVISTA-ECD 6-His tag. The assay is described as follows: SPR, Ab on Protein A, hVISTA analyte, pH 6.9. The protocol: Further binding kinetic experiments were performed at various pHs on VISTA antibodies described herein by SPR as generally described in Example 9 above. Antibodies were normalized to 50 nM concentration in PBST pH 7.4 and captured on a Protein A CM5 chip (ID 4931) by injecting for 45 seconds at a 5 µL/min flow rate. An 8-point human VISTA titration ([…]) was prepared in PBST at pH 7.4, 6.9, 6.45, and 6.0. Titrations were injected over the captured antibodies for 180 seconds at 30 µL/min. Sensorgrams were fit to a 1:1 binding model in T200 evaluation software and the kinetic constants were reported.
Each table reports the data at one of the four tested pHs (7.4, 6.9, 6.45, and 6.0, respectively). The 8-point hVISTA titration used in these assays was chosen to provide increased confidence in kinetic values reported at neutral pH conditions. A relatively stringent cutoff for non-binding was applied in this assay. Certain progeny of P1-061029 antibody (P1-068757, ‘759, ‘765, ‘771, and ‘775) show no binding to hVISTA at micromolar concentrations at pH 7.4, while ‘761 and ‘767 show no binding to hVISTA at 100 nM at pH 7.4 but do show binding to hVISTA at micromolar concentrations.

T1 sequence (Q9H7M9 other isoform, or with tags, fused parts or gaps limits assumed): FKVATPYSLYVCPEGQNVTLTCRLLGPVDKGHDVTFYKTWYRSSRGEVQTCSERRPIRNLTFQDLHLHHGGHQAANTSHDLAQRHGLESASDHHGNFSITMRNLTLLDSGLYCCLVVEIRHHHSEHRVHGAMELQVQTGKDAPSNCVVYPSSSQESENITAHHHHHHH
T2 sequence (Q9H7M9 other isoform, or with tags, fused parts or gaps limits assumed): as above

B1: P1-077835 (P1-068744 E31S) (antibody, V domains shown)
VH: QVQLVESGGGVVQPGRSLRLSCAASGFTFSSYAMHWVRQAPGKGLEWVAHIWYDGSNKYEADSVKGRFTISRDNSKNTLYLQMNSLRAEDTAVYYCARDSGFYESYYFDEWGQGTLVTVSS
VL: EIVLTQSPATLSLSPGERATLSCRASQSVSSSYLAWYQQKPGQAPRLLIYDASNRATGIPARFSGSGSGTDFTLTISSLEPEDFATYYCQQYNSYPYTFGQGTKLEIK
As a reminder, the Kd is a measure of binding affinity in units of concentration. High values mean weaker binding, low ones tighter binding. One may read the koff as a measure of how fast the partners let go of each other. A lower koff goes with a long-lived complex. The term kon denotes the second-order rate constant of association. Low values mean slow association, high ones fast association. In the case of B1, in the assay with hVISTA-ECD 6-His tag [1], the Kd worked out at 660 nM, the koff is 0.026 s⁻¹ and the kon stood at 39000 M⁻¹ s⁻¹. Moreover, in the assay with hVISTA-ECD 6-His tag [2], the Kd amounted to 7.7 nM, the koff stood at 0.0017 s⁻¹ and the association rate constant (kon) came out at 220000 M⁻¹ s⁻¹.

B2: P1-077839 (P1-068744 E59Y) (antibody, V domains shown)
VH: QVQLVESGGGVVQPGRSLRLSCAASGFTFSEYAMHWVRQAPGKGLEWVAHIWYDGSNKYYADSVKGRFTISRDNSKNTLYLQMNSLRAEDTAVYYCARDSGFYESYYFDEWGQGTLVTVSS
VL: EIVLTQSPATLSLSPGERATLSCRASQSVSSSYLAWYQQKPGQAPRLLIYDASNRATGIPARFSGSGSGTDFTLTISSLEPEDFATYYCQQYNSYPYTFGQGTKLEIK
Take B2: in the assay with hVISTA-ECD 6-His tag [1], binding was put at a Kd of 1300 nM, the koff is 0.093 s⁻¹ and the on-rate (kon) turned out to be 71000 M⁻¹ s⁻¹. In the assay with hVISTA-ECD 6-His tag [2], this molecule returned a Kd of 85 nM, a koff of 0.054 s⁻¹ and a kon of 630000 M⁻¹ s⁻¹.

B3: P1-077837 (P1-068744 H50I) (antibody, V domains shown)
VH: QVQLVESGGGVVQPGRSLRLSCAASGFTFSEYAMHWVRQAPGKGLEWVAIIWYDGSNKYEADSVKGRFTISRDNSKNTLYLQMNSLRAEDTAVYYCARDSGFYESYYFDEWGQGTLVTVSS
VL: EIVLTQSPATLSLSPGERATLSCRASQSVSSSYLAWYQQKPGQAPRLLIYDASNRATGIPARFSGSGSGTDFTLTISSLEPEDFATYYCQQYNSYPYTFGQGTKLEIK
For the molecule B3, in the assay with hVISTA-ECD 6-His tag [1], the equilibrium dissociation constant (Kd) turned out to be 26 nM, the koff is 0.0033 s⁻¹ and the on-rate constant (kon) was 130000 M⁻¹ s⁻¹. In the assay with hVISTA-ECD 6-His tag [2], the Kd worked out at 2.5 nM, the koff stood at 0.003 s⁻¹ and the association rate constant (kon) stood at 1.2e+06 M⁻¹ s⁻¹.

B4: P1-077841 (P1-068744 E100S) (antibody, V domains shown)
VH: QVQLVESGGGVVQPGRSLRLSCAASGFTFSEYAMHWVRQAPGKGLEWVAHIWYDGSNKYEADSVKGRFTISRDNSKNTLYLQMNSLRAEDTAVYYCARDSGFYSSYYFDEWGQGTLVTVSS
VL: EIVLTQSPATLSLSPGERATLSCRASQSVSSSYLAWYQQKPGQAPRLLIYDASNRATGIPARFSGSGSGTDFTLTISSLEPEDFATYYCQQYNSYPYTFGQGTKLEIK
B4: in the assay with hVISTA-ECD 6-His tag [1], the dissociation constant Kd was determined as 910 nM, the koff stood at 0.3 s⁻¹ and the kon was determined as 330000 M⁻¹ s⁻¹. In the assay with hVISTA-ECD 6-His tag [2], this molecule yielded a Kd of 200 nM, an off-rate (koff) of 0.11 s⁻¹ and a kon of 520000 M⁻¹ s⁻¹.

B5: P1-069073 (antibody, human IgG1, kappa, V domains shown)
VH: EVQLVESGGGLVQPGKSLRLSCAASGFTLEDEAMHWVRQAPGKGLEWVSGINWNSAEIGYADSVKGRFTISRDNAKNSLYLQMNSLRTEDTALYYCAKVPGYSGGWIDAEDVWGQGTMVTVSS
VL: not shown
notes: IgG1.3
On to B5, for which, in assay [3], binding was characterised by a dissociation constant (Kd) of 9.4 nM, the off-rate constant (koff) turned out to be 0.0058 s⁻¹ and the kon worked out at 610000 M⁻¹ s⁻¹.

B6: P1-072000 (P1-061029_F100fE_V102D) (antibody, human IgG1, kappa, V domains shown)
VH: EVQLVESGGGLVQPGKSLRLSCAASGFTLDDYAMHWVRQAPGKGLEWVSGINWNSANIGYADSVKGRFTISRDNAKNSLYLQMNSLRTEDTALYYCAKVPGYSGGWIDAEDDWGQGTMVTVSS
VL: not shown
notes: also called P1-072000-3; P1-72000
On to B6, for which the dissociation constant (Kd) in the assay with hVISTA-ECD 6-His tag [4] is 47 nM and 27 nM; in the assay with hVISTA-ECD 6-His tag [5], 11 nM and 5.8 nM; with hVISTA-ECD 6-His tag [6] it was 280 nM and 250 nM. The koff with hVISTA-ECD 6-His tag [4] is 0.0053 s⁻¹ and 0.0044 s⁻¹; with hVISTA-ECD 6-His tag [5], 0.0027 s⁻¹ and 0.0026 s⁻¹; with hVISTA-ECD 6-His tag [6], 0.011 s⁻¹. The kon in the assay with hVISTA-ECD 6-His tag [4] was 110000 M⁻¹ s⁻¹ and 160000 M⁻¹ s⁻¹; with hVISTA-ECD 6-His tag [5] it was 250000 M⁻¹ s⁻¹ and 450000 M⁻¹ s⁻¹; with hVISTA-ECD 6-His tag [6] it was 39000 M⁻¹ s⁻¹ and 42000 M⁻¹ s⁻¹.

For the origin of these results see US20230192860A1 (Bristol-Myers Squibb, published 2023).
